The values below come from article PMC6778065, “BIN1 recovers tauopathy-induced long-term memory deficits in mice and interacts with Tau through Thr^348 phosphorylation” (Acta Neuropathologica, 2019).

Assay [1] concerns the target T1, human Tau (MAPT transgene, hTau mouse hippocampus) (human, UniProt P10636-8 1-441).
T1 construct: human Tau from the human MAPT transgene Tg(MAPT)8cPdav; source: transgenic mouse (hTau; hTau;TgBIN1; no endogenous murine Mapt), hippocampus, fixed brain slices
As to the kind of experiment: proximity ligation; PLA in fixed hippocampal brain slices of 18-month-old control, hTau and hTau;TgBIN1 mice; primary antibodies BIN1-99D or α-tubulin DM1A (mouse) and Tau (rabbit); PLA spot density per tissue area. The conditions noted are these: partners not purified.

The target in a further assay is T2, BIN1-SH3 domain (UniProt O00499 520-593).
T2 construct: SH3 domain of BIN1 (Amphiphysin 2); residue 559 lies in it (isoform 1 numbering); 15N-labelled for NMR; also called 15N-BIN1 SH3
T2 sequence (looked up): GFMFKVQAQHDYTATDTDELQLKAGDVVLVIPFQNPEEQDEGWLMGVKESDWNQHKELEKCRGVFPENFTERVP
As to the kind of experiment: NMR titration; 100 µM 15N-labeled BIN1-SH3 domain titrated with aliquots of 4 mM unlabeled peptide; 1H-15N HSQC chemical shift changes fitted to the saturation equation; 20 °C, 50 mM sodium phosphate pH 7.3, 30 mM NaCl, 3 mM DTT, 10% D2O. The conditions noted are these: both partners purified.

Square brackets hold non-standard residues; d marks the D form. Ends that are not written are not given here. pT = C[C@@H](OP(=O)(O)O)[C@H](N)C(=O)O

T1 sequence (P10636 other isoform, or with tags, fused parts or gaps): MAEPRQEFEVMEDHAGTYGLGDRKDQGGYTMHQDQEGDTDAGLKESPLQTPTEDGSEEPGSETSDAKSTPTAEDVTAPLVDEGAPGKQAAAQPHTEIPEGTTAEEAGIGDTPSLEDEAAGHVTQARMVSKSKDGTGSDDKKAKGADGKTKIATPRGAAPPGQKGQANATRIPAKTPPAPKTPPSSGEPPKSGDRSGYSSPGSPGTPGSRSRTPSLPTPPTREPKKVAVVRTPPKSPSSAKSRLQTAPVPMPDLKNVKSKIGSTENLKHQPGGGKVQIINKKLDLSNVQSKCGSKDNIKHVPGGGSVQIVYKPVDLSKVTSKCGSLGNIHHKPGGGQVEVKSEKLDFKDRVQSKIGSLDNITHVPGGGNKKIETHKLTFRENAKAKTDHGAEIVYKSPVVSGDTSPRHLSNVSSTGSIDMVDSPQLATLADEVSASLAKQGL

B1: human BIN1 (transgene, hTau;TgBIN1 mouse hippocampus) (natural protein, UniProt O00499 1-593, looked up)
chain: MAEMGSKGVTAGKIASNVQKKLTRAQEKVLQKLGKADETKDEQFEQCVQNFNKQLTEGTRLQKDLRTYLASVKAMHEASKKLNECLQEVYEPDWPGRDEANKIAENNDLLWMDYHQKLVDQALLTMDTYLGQFPDIKSRIAKRGRKLVDYDSARHHYESLQTAKKKDEAKIAKPVSLLEKAAPQWCQGKLQAHLVAQTNLLRNQAEEELIKAQKVFEEMNVDLQEELPSLWNSRVGFYVNTFQSIAGLEENFHKEMSKLNQNLNDVLVGLEKQHGSNTFTVKAQPSDNAPAKGNKSPSPPDGSPAATPEIRVNHEPEPAGGATPGATLPKSPSQLRKGPPVPPPPKHTPSKEVKQEQILSLFEDTFVPEISVTTPSQFEAPGPFSEQASLLDLDFDPLPPVTSPVKAPTPSGQSIPWDLWEPTESPAGSLPSGEPSAAEGTFAVSWPSQTAEPGPAQPAEASEVAGGTQPAAGAQEPGETAASEAASSSLPAVVVETFPATVNGTVEGGSGAGRLDLPPGFMFKVQAQHDYTATDTDELQLKAGDVVLVIPFQNPEEQDEGWLMGVKESDWNQHKELEKCRGVFPENFTERVP
notes: human BIN1 expressed under the control of its own promoter; endogenous mouse Bin1 is present in the same tissue; also called hBIN1; Amphiphysin 2; source: transgenic mouse (hTau;TgBIN1), hippocampus, fixed brain slices
B1: in assay [1], the “fold PLA spot density against control mice” value was 6.2 fold and the “fold PLA spot density against hTau mice” value was 2.7 fold.

B2: CLAP (334-355) peptide (peptide)
peptide: QLRKGPPVPPPPKHTPSKEVKQ
notes: residues 334-355 of the CLAP domain of BIN1 isoform 1 (neuronal isoform); unlabeled peptide, 4 mM stock solution
Regarding B2, the Kd (commonly the equilibrium constant for the complex coming apart) in the assay with BIN1-SH3 domain came out at 71 ± 13 µM.

B3: phospho-T348 CLAP (334-355) peptide (peptide)
peptide: QLRKGPPVPPPPKH[pT]PSKEVKQ
notes: residues 334-355 of the CLAP domain of BIN1 isoform 1 (neuronal isoform), phosphorylated on T348; unlabeled peptide, 4 mM stock solution; also called phospho-CLAP (334-355)
On to B3, for which, in the assay with BIN1-SH3 domain, the dissociation constant Kd is 736 ± 70 µM.
